Patent publication US20210206882A1 (AB STUDIO, published 2021)
Substitutions are numbered along the chain they refer to. Names may count otherwise. Blank lines part the entries; values can stand above or below the binder they belong to.

Tests used:
CD55 = target: T1, CD55 (UniProt P08174 35-353, limits assumed); assay: flow cytometry cell binding on MDA231 cells (Cy3 goat anti-human IgG); antibody concentration not given
T1 construct: In the internalization assay CD55 stood on MDA231 and SIHA cells
T1 sequence (looked up): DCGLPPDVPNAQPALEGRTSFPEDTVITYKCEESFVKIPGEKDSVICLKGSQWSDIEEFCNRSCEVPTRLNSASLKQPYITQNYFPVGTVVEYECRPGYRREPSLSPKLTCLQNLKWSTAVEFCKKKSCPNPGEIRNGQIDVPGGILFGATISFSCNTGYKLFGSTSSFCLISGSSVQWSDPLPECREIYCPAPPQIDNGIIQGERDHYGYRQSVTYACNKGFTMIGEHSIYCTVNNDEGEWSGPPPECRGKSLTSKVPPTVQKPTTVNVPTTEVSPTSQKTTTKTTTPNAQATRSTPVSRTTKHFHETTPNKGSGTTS

[1] = target: T2, CD20 (on CD20 positive Raji cells) (UniProt P11836 1-297, limits assumed); assay: flow cytometry cell binding on CD20+ Raji cells, 3-fold titration 10 to 0.04 µg/ml and 0
T2 construct: whole, on cells; Raji is a human B cell line
T2 sequence (looked up): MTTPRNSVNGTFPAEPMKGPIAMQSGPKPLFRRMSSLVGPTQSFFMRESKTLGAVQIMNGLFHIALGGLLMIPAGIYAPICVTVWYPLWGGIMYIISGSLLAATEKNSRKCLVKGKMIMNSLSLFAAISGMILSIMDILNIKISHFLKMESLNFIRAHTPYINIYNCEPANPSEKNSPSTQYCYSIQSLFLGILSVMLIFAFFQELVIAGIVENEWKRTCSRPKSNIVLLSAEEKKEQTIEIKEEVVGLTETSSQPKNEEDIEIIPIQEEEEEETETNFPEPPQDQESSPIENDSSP

PD-L1 = PD-L1 (UniProt Q9NZQ7 19-290, limits assumed); assay: flow cytometry cell binding on MDA231 cells (Cy3 goat anti-human IgG); antibody concentration not given
Sequence of PD-L1 (Q9NZQ7 19-290 limits assumed): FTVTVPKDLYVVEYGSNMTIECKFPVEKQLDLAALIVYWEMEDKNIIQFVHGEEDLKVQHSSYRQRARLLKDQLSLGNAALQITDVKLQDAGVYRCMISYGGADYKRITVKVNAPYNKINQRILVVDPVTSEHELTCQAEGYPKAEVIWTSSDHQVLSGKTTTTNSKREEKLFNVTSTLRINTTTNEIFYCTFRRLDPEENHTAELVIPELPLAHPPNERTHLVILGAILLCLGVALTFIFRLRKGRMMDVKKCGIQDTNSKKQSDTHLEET

B2: parental anti-CD20 IgG (Rituximab) (antibody, V domains shown)
VH: QVQLQQPGAELVKPGASVKMSCKASGYTFTSYNMHWVKQTPGRGLEWIGAIYPGNGDTSYNQKFKGKATLTADKSSSTAYMQLSSLTSEDSAVYYCARSTYYGGDWYFNVWGAGTTVTVSA
VL: QIVLSQSPAILSASPGEKVTMTCRASSSVSYIHWFQQKPGSSPKPWIYATSNLASGVPVRFSGSGSGTSYSLTISRVEAEDAATYYCQQWTSNPPTFGGGTKLEIKR
notes: tested as IgG; also called Parental CD20; CD20 parental Ab
EC50 (read off the curve) [1]: ~0.2 µg/mL

B3: parental anti-CD3 IgG (MAb 12F6) (antibody, V domains shown)
VH: QVQLQQSGAELARPGASVKMSCKASGYTFTSYTMHWVKQRPGQGLEWIGYINPSSGYTKYNQKFKDKATLTADKSSSTAYMQLSSLTSEDSAVYYCARWQDYDVYFDYWGQGTTLTVSS
VL: B2 VL with I32M, F35Y, V59A, T91S, I105T
notes: tested as IgG; also called Parental CD3; CD3 parental Ab
binding result [1]: no binding (tested: 10 µg/ml)

B4: CD20 homodimer IgG containing the designed VH sequence (SEQ ID NO: 1) and the common VL sequence (SEQ ID NO: 3) (antibody, V domains shown)
VH: B2 VH with T87R
VL: B2 VL
notes: Homodimer IgG with two VHa and two common VL; VHa is the Rituximab VH with T83R (Kabat); also called redesigned Rituximab; antibody A
EC50 (read off the curve) [1]: ~0.4 µg/mL

Results, then the binder that gave them:

binding result (CD55): binds
B1: parental anti-CD55 antibody (CD55 wt) (antibody, V domains shown)
VH: QVKLQESGGGLVQPGGSLKLSCAASGFTFSGYGMSWIRQTPDKRLEWVATINSGGSYTYYSDSVKGRFTISRDNVKNTLYLQMSSLKSEDTAMYYCARRNGTLYYYLMDYWGRGTLVTVSS
VL: QSVLTQPPSASGSPGQSVTISCTGTSSDVGGYNYVSWYQQHPGKAPKFMIYDVSKRPSGVSNRFSGSKSGNTASLTISGVQAEDEADYYCSSYTSASTVIFGGGTKLTVL
notes: The variable domains come from a published CD55 scFv; also called CD55 parental Ab; anti-CD55 parental monoclonal antibody

binding result [1]: no binding (tested: 10 µg/ml)
B5: CD3 homodimer IgG containing the designed VH sequence (SEQ ID NO: 2) and the common VL sequence (SEQ ID NO: 3) (antibody, V domains shown)
VH: B3 VH with Q1E, Q6E, Q43E, Q82E, Q111E
VL: B2 VL
notes: Homodimer IgG with two VHb and two common VL; also called redesigned 12F6; antibody B

binding result (PD-L1): binds
B6: Anti-PD-L1 homodimer IgG (PD-L1 v1) containing the designed VH sequence (SEQ ID NO: 4) and the common VL sequence (SEQ ID NO: 6) (antibody, V domains shown)
VH: EVQLLESGGGLVEPGGSLRLSCAASGFTFSSYIMMWVRQAPGKGLEWVSSIYPSGGITFYADTVKGRFTISRDNSKNTLYLQMNSLRAEDTAVYYCARIKLGTVTTVDYWGEGTLVTVSS
VL: QSALTQPASVSGSPGQSITISCTGTSSDVGGYNYVSWYQQHPGKAPKLMIYDVSKRPSGVSNRFSGSKSGNTASLTISGLQAEDEADYYCSSYTSASTRIFGGGTKVTVLR
notes: Homodimer IgG; The heavy chain constant region of the homodimer is not specified; also called PD-L1 mono-dimer IgG; PDL1 homodimer version 1

binding result (CD55): binds
B7: Anti-CD55 homodimer IgG (CD55 v1) containing the designed VH sequence (SEQ ID NO: 5) and the common VL sequence (SEQ ID NO: 6) (antibody, V domains shown)
VH: B1 VH with Q13K, D42G
VL: B6 VL
notes: Homodimer IgG; also called CD55 mono-dimer IgG; CD55 homodimer version 1
